Assay results taken from publication PMC4526660.
Several values for one entry are separate records, joined by “and”; a condition that tells them apart may be missing. Equal entries are not always repeated. Where two headings read alike, the source gives them in different places. Each block holds one substance with its values, some of them ahead of it.

Tests used:
[1] = molecular target: Phosphatase and tensin homolog deleted on chromosome 10 (PTEN) (African green monkey (endogenous in Vero)); assay: co-IP; immunoprecipitation with PTEN, Rak or β-arrestin antibodies from Vero cells, mock, ARV-infected or p17-transfected, also with Rak shRNA, Rock-1 shRNA, Y-27632 or TBB; 500 ug cellular proteins with 4 ug antibody at 4°C overnight; Western blot; amounts normalized to mock controls
[2] = molecular target: Phosphatase and tensin homolog deleted on chromosome 10 (PTEN) (African green monkey (endogenous in Vero)); assay: as above; remark: listed apart in the source

Chain of Rak (P42685 whole entry): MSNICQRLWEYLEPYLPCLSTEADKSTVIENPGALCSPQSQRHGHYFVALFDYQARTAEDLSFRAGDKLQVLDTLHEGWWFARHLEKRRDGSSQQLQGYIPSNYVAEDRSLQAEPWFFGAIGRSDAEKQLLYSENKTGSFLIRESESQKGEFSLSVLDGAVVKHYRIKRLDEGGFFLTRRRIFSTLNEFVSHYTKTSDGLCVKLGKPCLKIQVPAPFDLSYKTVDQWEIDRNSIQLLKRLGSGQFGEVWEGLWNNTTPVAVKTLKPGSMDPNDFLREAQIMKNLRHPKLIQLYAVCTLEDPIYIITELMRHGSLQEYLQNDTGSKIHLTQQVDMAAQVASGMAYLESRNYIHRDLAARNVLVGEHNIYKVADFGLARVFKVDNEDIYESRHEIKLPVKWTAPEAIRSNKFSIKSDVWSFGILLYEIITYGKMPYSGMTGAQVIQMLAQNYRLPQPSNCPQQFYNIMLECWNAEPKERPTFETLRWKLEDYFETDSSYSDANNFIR

other [1]: 2.35 fold and 2.45 fold | other [2]: 2.8 fold and 3.1 fold
Substance: E3 ligase NEDD4-1 (natural protein)

fold increase of Rak-PTEN association against mock, ARV-infected cells [2]: 3.8 fold | fold increase of Rak-PTEN association against mock, p17-transfected cells [2]: 4.5 fold
Substance: Rak (from UniProt P42685-1 1-505) (natural protein)

fold increase of β-arrestin-PTEN association against mock, ARV-infected cells [2]: 3.5 fold | fold increase of β-arrestin-PTEN association against mock, p17-transfected cells [2]: 6 fold
Substance: β-arrestin (natural protein)
